Laboratory results from publication PMC3498381, “Isolated Toll-like Receptor Transmembrane Domains Are Capable of Oligomerization” (PLoS ONE, 2012).
No end group written: not given here.

Tests used:
[1] = Sedimentation equilibrium analytical ultracentrifugation (SE-AUC); format: physicochemical; details: for Oligomeric state (equilibrium model) / Average molecular weight obtained from the fit: SE-AUC; for Oligomeric state (equilibrium model): density matched 10 mM C14-betaine micelles, 100 mM HEPES pH 7.4, 25% D2O, 25 °C; for Average molecular weight obtained from the fit: peptide alone, global fit, single species model, 495 nm (FITC-TLR2) or 400 nm (coumarin-TLR6)
Protocol: Supplementary file pone.0048875.s003.tif: Figure S3 TLR2 Homotypic Sedimentation Equilibrium AUC. Sedimentation equilibrium profile at 495 nm of FITC-labeled TLR2 in density matched C14-betaine micelles (10 mM) in HEPES buffer (100 mM, pH 7.4). The partial specific volume and the solution density were fixed at 0.78730 mL/g and 1.031 g/mL, respectively. The data was analyzed using a global fitting routine. […] (TIF) Click here for additional data file.
Supplementary file pone.0048875.s004.tif: Figure S4 TLR6 Homotypic Sedimentation Equilibrium AUC. Sedimentation equilibrium profile at 400 nm of coumarin-labeled TLR6 in density matched C14-betaine micelles (10 mM) in HEPES buffer (100 mM, pH 7.4). The partial specific volume and the solution density were fixed at 0.78705 mL/g and 1.031 g/mL, respectively. The data was analyzed using a global fitting routine. […] (TIF) Click here for additional data file.
Supplementary file pone.0048875.s005.tif: Figure S5 TLR2-TLR6 Heterotypic Sedimentation Equilibrium AUC. Sedimentation equilibrium profile at 495 nm of FITC-labeled TLR2 in density matched C14-betaine micelles (10 mM) in HEPES buffer (100 mM, pH 7.4) in the presence of 2 equiv. of coumarin-labeled TLR6 peptide. The partial specific volume and the solution density were fixed at 0.78730 mL/g and 1.031 g/mL, respectively. The data was analyzed using a global fitting routine. […] (TIF) Click here for additional data file.
Equilibrium sedimentation was used primarily to determine the association state of TLR2, TLR6, and TLR2-TLR6. The experiments were performed in a Beckman XL-I analytical ultracentrifuge (Beckman Coulter) using six-channel carbon-epoxy composite centerpieces at 25 °C. Peptides were co-dissolved in trifluoroethanol (TFE) and C14-betaine. The organic solvent was removed using dry nitrogen gas and the resulting thin film of peptide/detergent mixture was dried overnight. The sample was then dissolved in buffer previously determined to match the density of the detergent component (100 mM HEPES buffer (pH= 7.4) buffer containing 25% D2O). The final concentration of C14-betaine is 10 mM in all of the samples. Peptide concentrations were determined by UV-Vis on the Beckman Coulter XL-I and dilutions were carried out to get concentrations in the desired absorbance ranges of the instrument (0.3-1) using the following extinction coefficients: 39,300 M^-1cm^-1 at 400 nm for coumarin labeled peptides and 69,000 M^-1cm^-1 at 495 nm for FITC labeled peptides. Data at different measurement speeds (30, 35 krpm) and different peptide:detergent ratios were analyzed by global curve-fitting of radial concentration gradients (measured using optical absorption) to the sedimentation equilibrium equation. Absorbance at both 400 nm and 495 nm was measured. Peptide partial specific volumes were calculated using previously described methods and residue molecular weights corrected for the 25% D2O exchange expected for the density-matched buffer. The solvent density (1.031 g/ml) was calculated using the program Sednterp. These coefficients were multiplied by the molar detergant ratio concentration units. […]
where E = baseline (zero concentration) absorbance, co is the peptide/detergent ratio of the peptide at ro, ε is the molar extinction coefficient, l is the optical path length, ω =2π*RPM, R= 8.3144 ×10^7 erg K^-1mol^-1 , T is temperature in K, M is the buoyant molecular weight of the peptide. […]

[2] = target: T1, 7-hydroxycoumarin labeled TLR6 TMD peptide (Homo sapiens, UniProt Q9Y2C9); assay: FRET titration, TLR2-TLR6; format: binding; details: nM of acceptor labeled peptide; donor coumarin-TLR6 20 nM, fluorescein-TLR2 0-1500 nM, 1 mM C14-betaine, 100 mM HEPES pH 7.4; Hill equation; read-out: Dissociation constant, TLR2-TLR6 interaction
T1 construct: we synthesized peptides for the TLR1, TLR2, and TLR6 TMDs; made in house; host or cells: chemical solid-phase synthesis on Rink Amide resin (C-terminal amide)
Protocol: (§1) Using the same TLR1, TLR2, and TLR6 peptides, as described above, we were able to monitor the heterotypic interactions between TLR2-TLR1 and TLR2-TLR6 using a previously reported Förster resonance energy transfer (FRET) assay. […] The dissociation constant for the TLR2-TLR1 interaction was 230.8±20.0 nM of acceptor labeled peptide and for TLR2-TLR6 it was 286.5±14.8 nM of acceptor labeled peptide (Fig. 6C). […] SE-AUC was also used to investigate the oligomeric state of the TLR2-TLR6 heterotypic interaction.
(§2) Figure 6 TLR2-TLR1 and TLR2-TLR6 Heterotypic Interactions Measured by Förster Resonance Energy Transfer. Synthetic TMD peptides were co-incubated in micelles with the FRET donor concentration fixed to be 20 nM and the FRET acceptor concentration varied from 0–1500 nM. The donor was excited at 415 nm and emission was monitored from 440–600 nm. Only donor emission is shown as the excitation-emission separation led to a high background signal seen in the acceptor channel. (A) TLR2-TLR1 donor channel. (B) TLR2-TLR6 donor channel. (C) FRET efficiency based on decrease in donor signal at increasing acceptor concentrations.
(§3) FRET was used to directly probe the heterotypic association of the synthetic peptides. FRET experiments were performed on a Horiba Fluorolog-3 using a 0.3 cm path length cuvette. […]

[3] = target: T2, 7-hydroxycoumarin labeled TLR1 TMD peptide (Homo sapiens, UniProt Q15399); assay: FRET titration, TLR2-TLR1; format: binding; details: nM of acceptor labeled peptide; donor coumarin-TLR1 20 nM, fluorescein-TLR2 0-1500 nM, 1 mM C14-betaine, 100 mM HEPES pH 7.4; Hill equation; read-out: Dissociation constant, TLR2-TLR1 interaction
T2 construct: we synthesized peptides for the TLR1, TLR2, and TLR6 TMDs; made in house; host or cells: chemical solid-phase synthesis on Rink Amide resin (C-terminal amide)
T2 sequence (Q15399 581-601 limits assumed): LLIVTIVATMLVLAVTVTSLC
Protocol: as §1, §2, §3

[4] = 10 mM C14-betaine, 100 mM HEPES pH 7.4

For “TLR2*: TLR2 TMD chimera with nonfunctional ToxR* domain (negative phenotype) (GNRASALVSGMCCALFLLILLTGVLCGSLIN; cysteine pairing not given here; also: fused to non-functional ToxR* (S87H) and maltose binding protein, ends not given here)”, which “Average molecular weight obtained from the fit, in the presence of TLR6” value ([1]; SE-AUC at 495 nm, FITC-labeled TLR2 with 2 equiv. of coumarin-labeled TLR6 peptide, 10 mM C14-betaine, 100 mM HEPES pH 7.4) is on record?
The value was 12330±506 Da.

What about the “Oligomeric state (equilibrium model)” value [1] of the same substance?
The value was “monomer-dimer-tetramer equilibrium”.

And the “Average molecular weight obtained from the fit” value [1, 4]?
The value was 14135±370 Da.

And the Kd [2]?
The Kd was 286 ± 14.8 nM.

And the Kd [3]?
Its Kd is 231 ± 20 nM.

For “TLR6*: TLR6 TMD chimera with nonfunctional ToxR* domain (negative phenotype) (GNRASITLLIVTIGATMLVLAVTVTSLCIYLGSLIN; also: fused to non-functional ToxR* (S87H) and maltose binding protein, ends not given here)”, which “Oligomeric state (equilibrium model)” value [1] is on record?
Its value is “monomer-dimer equilibrium”.

And the “Average molecular weight obtained from the fit” value [1, 4]?
The value was 7680±866 Da.
